Experimental data: publication PMC5133711

Assays:
JARID2 1-530 (hJARID2) = experiment: BLI; details: BLI: 10 mM HEPES pH 7.4, 150 mM NaCl, 3 mM EDTA, 0.005% Tween-20, 1 mg/ml BSA, 25 C, pull-down buffer not given in the material
[1] = molecular target: unmodified mononucleosomes (Xenopus); experiment: BLI; biotinylated mononucleosomes immobilised on streptavidin biosensors; Jarid2 1-530 at 2–25 μM; 25 °C; 10 mM HEPES pH 7.4, 150 mM NaCl, 3 mM EDTA, 0.005% Tween-20, 1 mg/ml BSA; kon and koff from kobs versus concentration; n=3
[2] = molecular target: H2AK119u1-modified mononucleosomes (Xenopus | not stated); experiment: as above
[3] = molecular target: H2AK119u1(I44A) mononucleosomes (Xenopus | not stated) (UniProt P0CG48); experiment: as above

H2AK119u1 mononucleosome (601, 147 bp)
Kd (JARID2 1-530 (hJARID2); kon 576 s-1 (so in the source), H2A K119C crosslinked to His-ubiquitin G67C (so in the source) by 1,3-dichloroacetone): 2.8 µM

H2AK119u1(I44A) mononucleosome (601, 147 bp)
Kd (JARID2 1-530 (hJARID2); H2A K119C crosslinked to His-ubiquitin I44A;G67C (so in the source)): 5.1 µM

hJARID2 1–530 (from UniProt Q92833 1-530) (domain or fragment)
Kd [1]: 5 µM | Kd [2]: 2.8 µM | Kd [3]: 5.1 µM

unmodified mononucleosome (601, 147 bp)
Kd (JARID2 1-530 (hJARID2); kon 313 s-1 (so in the source)): 5 µM
